Experimental data published in paper PMC5432954.

Molecular target: papain (UniProt P00784)
Test: enzyme inhibition assay (Dixon plot); various amounts of recombinant protein with 10 ug papain (1.24 uM final in 350 ul), 0.1 M sodium phosphate pH 6.0, 1 mM EDTA, 2 mM beta-mercaptoethanol, 37°C, substrate BANA; Ki from plots of 1/v versus [I]

Sequence of UniProt P00784 (P00784 134-345): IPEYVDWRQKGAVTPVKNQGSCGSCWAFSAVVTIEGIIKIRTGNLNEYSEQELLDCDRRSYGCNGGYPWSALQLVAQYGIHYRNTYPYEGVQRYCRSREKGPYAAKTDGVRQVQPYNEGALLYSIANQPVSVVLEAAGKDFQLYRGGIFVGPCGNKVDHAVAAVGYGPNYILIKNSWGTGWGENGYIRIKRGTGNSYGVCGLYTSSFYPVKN

Row | Ki | Substance
1 | 0.019 µM | SiCYS, sesame seed group II phytocystatin (non-fusion recombinant) (natural protein)
2 | 0.079 µM | SiCYS-N, N-terminal domain of SiCYS (non-fusion recombinant) (domain or fragment)
